Laboratory results published in IntAct's records for PubMed 24462684.

B1: Mitochondrial import inner membrane translocase subunit TIM50 (Saccharomyces cerevisiae), Q02776 (parent)
chain: MLSILRNSVRLNSRALRVVPSAANTLTSVQASRRLLTSYSSFLQKETKDDKPKSILTDDMLFKAGVDVDEKGQGKNEETSGEGGEDKNEPSSKSEKSRRKRQTSTDIKREKYANWFYIFSLSALTGTAIYMARDWEPQESEELKKDIDNGYTLSLMYKRFKARFNSMFTYFQEPPFPDLLPPPPPPPYQRPLTLVITLEDFLVHSEWSQKHGWRTAKRPGADYFLGYLSQYYEIVLFSSNYMMYSDKIAEKLDPIHAFVSYNLFKEHCVYKDGVHIKDLSKLNRDLSKVIIIDTDPNSYKLQPENAIPMEPWNGEADDKLVRLIPFLEYLATQQTKDVRPILNSFEDKKNLAEEFDHRVKKLKDKFYGDHKSGGNWAMTALGLGNSLGGSTKFPLDLIHEEGQKNYLMFMKMIEEEKEKIRIQQEQMGGQTFTLKDYVEGNLPSPEEQMKIQLEKQKEVDALFEEEKKKKKIAESK
B2: ATP synthase subunit 9, mitochondrial (Neurospora crassa (strain ATCC 24698 / 74-OR23-1A / CBS 708.71 / DSM 1257 / FGSC 987)), P00842 (parent)
chain: MASTRVLASRLASQMAASAKVARPAVRVAQVSKRTIQTGSPLQTLKRTQMTSIVNATTRQAFQKRAYSSEIAQAMVEVSKNLGMGSAAIGLTGAGIGIGLVFAALLNGVARNPALRGQLFSYAILGFAFVEAIGLFDLMVALMAKFT
partner: B1 chain

Variants of: B1
Details: with atp9_neucr oli

| Variant | effect of a mutation on the interaction |
| --- | --- |
| E414A | decreasing interaction |

Variants of: B1
Details: with atp9_neucr oli
Remark: another data set of the same source

| Variant | effect of a mutation on the interaction |
| --- | --- |
| I413A;D436A | disrupting interaction |

Variants of: B1
Details: with atp9_neucr oli
Remark: another data set of the same source

| Variant | effect of a mutation on the interaction |
| --- | --- |
| E415A | decreasing interaction |

Variants of: B1
Details: with atp9_neucr oli
Remark: another data set of the same source

| Variant | effect of a mutation on the interaction |
| --- | --- |
| L434N | decreasing interaction |

Variants of: B2
Details: with tim50_yeast TIM50, Q02776

| Variant | effect of a mutation on the interaction |
| --- | --- |
| L7Q;A12Q;A16Q;A17Q | disrupting interaction |
